# From patent US11845989B2, “Treatment of ophthalmic conditions with angiopoietin-like 7 (ANGPTL7) inhibitors” (Regeneron Pharmaceuticals, Inc., priority 2019, dated 2023)
# B1: ANGPTL7 protein: ANGPTL7 protein (catalog #4960-AN-025; R&D Systems), murine Angptl7 protein injected into mouse eyes (protein, UniProt Q8R1Q3 22-337, looked up)
# Angiopoietin-related protein 7: QKPHKRKTQLKAAGCCEEMRELKAQVANLSSLLGELSRKQESDWVSVVMQVMELESSSKHMESRLSTAESKYSEMNNQIDIMQLQAAQTVTQTSADAIYDCSSLYQKNYRISGVYKLPPDEFLGSPELEVFCDMETSGGGWTIIQRRKSGLVSFYQDWRQYKQGFGSIRGDFWLGNEHIHRLTRQPSRLRVELEDWEGNARYAEYSYFALGNELNSYRLFLGNYSGNVGKDALLYHNNTVFSTKDKDNDNCLDKCAQLRKGGYWYNCCTDSNLNGVYYRLGEHRKHMDGISWYGWHGANYSLKRVEMKIRPEAFKP
# Columns and labels:
# [1] = test system: mouse eyes; experiment: Intracameral injection of ANGPTL7 protein in mice, IOP measured over time; type: in vivo
# Procedure: (§1) Isoflurane anesthetized IOPs were measured as previously described. For IOP measurements, mice were anesthetized before IOP was measured in both eyes using a TonoLab rebound tonometer (Colonial Medical Supply, Franconia, N H). IOP measurements for both eyes were completed in 3-5 minutes. IOP in each eye was measured before start of Angptl7 injections and every day afterwards for six days.
# A 33-gauge needle with a glass microsyringe (5-4 volume) (Hamilton Company) was used. Before and during injection, mice were anesthetized with isoflurane (2.5%) containing oxygen (0.8 L/min). For topical anesthesia, both eyes received one to two drops of 0.5% proparacaine HCl (Akorn, Inc.). Each eye was proptosed and the needle was inserted through the cornea just above the limbal region and into the anterior chamber at an angle parallel to the cornea, taking care to avoid touching the iris, anterior lens capsule epithelium, or corneal endothelium. Up to 1 μL of ANGPTL7 protein (catalog #4960-AN-025; R&D Systems, Minneapolis, MN) or PBS was injected slowly (over a 30-second period). The needle was then withdrawn. The procedure was performed on both eyes of each animal. Only one injection was administered at day 0.
# [2] = test system: mouse eyes; experiment: Intravitreal injection of ANGPTL7 protein in mice, IOP measured over time; type: in vivo
# Procedure: as §1
# A 33-gauge needle with a glass microsyringe (5-4 volume; Hamilton Company) was used. The eye was proptosed, and the needle was inserted through the equatorial sclera and inserted into the vitreous chamber at an angle of approximately 45 degrees, taking care to avoid touching the posterior part of the lens or the retina. ANGPTL7 protein (catalog #4960-AN-025; R&D Systems, Minneapolis, MN) or PBS (1 μL) was injected into the vitreous over the course of 1 minute. The needle was then left in place for a further 45 seconds (to facilitate mixing), before being rapidly withdrawn. Only one injection was administered at day 0.
molecule,measurement,setting,value
B1,elevation of IOP,"[1]; mice, single intracameral injection at day 0, after an initial drop, starting on day 3 until end of experiment on day 7",2-5 mmHg
same,IOP in Angptl7-treated eyes compared to control eyes,"[1]; mouse eyes, intracameral route, after an initial drop (FIG. 6B)",elevated
same,elevation of IOP,"[2]; mice, single intravitreal injection at day 0, after an initial drop, starting on day 4 until end of experiment on day 7",4-5 mmHg
same,elevation of IOP compared to baseline,"[2]; mice, single intravitreal injection at day 0, starting on day 4 until day 7",22-25%
same,IOP in Angptl7-treated eyes compared to control eyes,"[2]; mouse eyes, intravitreal route, after an initial drop (FIG. 6A)",elevated
